pKd: −log10 of the molar value.
What was measured:
Experiment in all cases: filter binding
Conditions in all cases: Filter binding: 20 mM HEPES-KOH pH 7.5, 1 mM MgCl2, 10 µM TCEP, 5 mM β-mercaptoethanol, 10 µM ZnCl2, 50-500 mM NaCl, 0.2 nM RNA, 25 min, room temperature. …
[1] = system: HIV-2 GagΔp6 (HIV-2 isolate ROD)
[2] = system: HIV-2 MA (HIV-2 isolate ROD)
[3] = system: HIV-2 NC (NCp8) (HIV-2 isolate ROD)

| Substance | pKd [1] | pKd [2] | pKd [3] |
| --- | --- | --- | --- |
| HIV-2 PBS RNA | 6.50 | 5.68 | 5.69 |
| HIV-2 TARpA RNA | 6.02 | 5.62 | 5.84 |
| HIV-2 Ψ RNA | 6.90 | 5.82 | 6.01 |

Reference: article PMC4794849
